The source of these data is paper PMC7073461.

The target in the experiment is T7 DNAP (complex of T7 gp5 and Escherichia coli thioredoxin) (bacteriophage T7 | Escherichia coli) (UniProt P00581).
Sequence of UniProt P00581 (P00581 whole entry, chain 1 of 2): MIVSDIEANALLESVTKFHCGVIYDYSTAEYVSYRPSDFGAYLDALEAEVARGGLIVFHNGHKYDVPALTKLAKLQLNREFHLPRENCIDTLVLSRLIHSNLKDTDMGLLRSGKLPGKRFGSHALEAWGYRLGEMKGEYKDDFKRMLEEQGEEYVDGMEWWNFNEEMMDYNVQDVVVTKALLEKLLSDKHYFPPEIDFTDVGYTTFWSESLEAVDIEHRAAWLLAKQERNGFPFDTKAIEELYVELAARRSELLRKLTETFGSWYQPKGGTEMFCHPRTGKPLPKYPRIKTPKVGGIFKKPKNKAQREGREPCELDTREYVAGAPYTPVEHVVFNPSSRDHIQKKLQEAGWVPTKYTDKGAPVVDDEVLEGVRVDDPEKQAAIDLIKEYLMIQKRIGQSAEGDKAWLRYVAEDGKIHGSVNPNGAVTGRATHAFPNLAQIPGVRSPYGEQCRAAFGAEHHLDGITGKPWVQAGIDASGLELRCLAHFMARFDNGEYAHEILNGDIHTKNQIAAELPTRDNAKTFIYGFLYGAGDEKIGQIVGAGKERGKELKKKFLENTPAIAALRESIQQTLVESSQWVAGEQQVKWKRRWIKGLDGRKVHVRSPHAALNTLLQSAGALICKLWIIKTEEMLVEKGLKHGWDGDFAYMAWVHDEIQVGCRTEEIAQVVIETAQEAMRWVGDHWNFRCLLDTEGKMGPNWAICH
Sequence of UniProt P00581 (P0AA25 whole entry, chain 2 of 2, further chain): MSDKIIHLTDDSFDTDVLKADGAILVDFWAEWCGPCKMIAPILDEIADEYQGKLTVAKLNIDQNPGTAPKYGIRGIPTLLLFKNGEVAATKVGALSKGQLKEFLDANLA

In the case of “C-tail mutant of T7 gp4A′ (T7 HelicaseΔC17) (enzyme)”, the Pol/Exo ratio (nucleotides incorporated per nucleotide excised) during leading strand synthesis on minicircle DNA, 150 μM dVTPs and 500 μM dTTP; 50–60% lower than with the WT T7 helicase is 5.7.
